Reference: the supplement of paper PMC10567573

B1: TRIM55 (parent)
chain: YKSFSKEQQTMDNLEKQLICPICL

Variants of: B1
Experiment: protein stability index of a GFP-peptide fusion (GPS, HEK-293T) (PSI 1-6); higher = more stable
Settings: c terminus: a fixed tail appended
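Note: lentivirally expressed fusions sorted by FACS into six bins by GFP to DsRed ratio, PSI derived from sequencing read proportions per bin multiplied by bin number.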

Variant	protein stability index
YKSFSKEQQIMDNLEKQLICPICL	1.65
YKSFSKEQQQMDNLEKQLICPICL	2.31
YKSFSKEQQGMDNLEKQLICPICL	2.27
YKSFSKEQQPMDNLEKQLICPICL	2.53
YKSFSKEQQCMDNLEKQLICPICL	2.82
YKSFSKEQQRMDNLEKQLICPICL	2.03
YKSFSKEQQKMDNLEKQLICPICL	2.54
YKSFSKEQQVMDNLEKQLICPICL	2.04
YKSFSKEQQSMDNLEKQLICPICL	2.46
YKSFSKEQQWMDNLEKQLICPICL	1.77
YKSFSKEQQYMDNLEKQLICPICL	1.92
YKSFSKEQQHMDNLEKQLICPICL	2.03
YKSFSKEQQNMDNLEKQLICPICL	2.26
YKSFSKEQQLMDNLEKQLICPICL	2.18
YKSFSKEQQFMDNLEKQLICPICL	1.29
YKSFSKEQQDMDNLEKQLICPICL	2.08
YKSFSKEQQMMDNLEKQLICPICL	1.9
YKSFSKEQQAMDNLEKQLICPICL	1.74
YKSFSKEQQEMDNLEKQLICPICL	2.33
YKSFSKEQQTMDNLCKQLICPICL	2.72
YKSFSKEQQTMDNLQKQLICPICL	2.58
YKSFSKEQQTMDNLRKQLICPICL	2.12
YKSFSKEQQTMDNLHKQLICPICL	2.27
YKSFSKEQQTMDNLTKQLICPICL	2.9

Variant	protein stability index
YKSFSKEQQTMDNLNKQLICPICL	2.33
YKSFSKEQQTMDNLPKQLICPICL	2.51
YKSFSKEQQTMDNLDKQLICPICL	2.13
YKSFSKEQQTMDNLFKQLICPICL	2.1
YKSFSKEQQTMDNLMKQLICPICL	2.55
YKSFSKEQQTMDNLGKQLICPICL	2.41
YKSFSKEQQTMDNLLKQLICPICL	1.05
YKSFSKEQQTMDNLVKQLICPICL	1.27
YKSFSKEQQTMDNLKKQLICPICL	2.09
YKSFSKEQQTMDNLSKQLICPICL	1.79
YKSFSKEQQTMDNLAKQLICPICL	2.79
YKSFSKEQQTMDNLWKQLICPICL	1.45
YKSFSKEQQTMDGLEKQLICPICL	2.35
YKSFSKEQQTMDVLEKQLICPICL	1.68
YKSFSKEQQTMDKLEKQLICPICL	2.09
YKSFSKEQQTMDDLEKQLICPICL	2.77
YKSFSKEQQTMDHLEKQLICPICL	1.95
YKSFSKEQQTMDILEKQLICPICL	1.77
YKSFSKEQQTMDWLEKQLICPICL	2.05
YKSFSKEQQTMDRLEKQLICPICL	1.79
YKSFSKEQQTMDPLEKQLICPICL	2.03
YKSFSKEQQTMDQLEKQLICPICL	2.53
YKSFSKEQQTMDFLEKQLICPICL	2.34
YKSFSKEQQTMDMLEKQLICPICL	1.69

Variant	protein stability index
YKSFSKEQQTMDSLEKQLICPICL	1.91
YKSFSKEQQTMDLLEKQLICPICL	2.82
YKSFSKEQQTMDCLEKQLICPICL	2.02
YKSFSKEQQTMDELEKQLICPICL	1.87
YKSFSKEQQTMDYLEKQLICPICL	1.83
YKSFSKEQQTMDTLEKQLICPICL	2.81
YKSFSKEQQTMDALEKQLICPICL	1.57
YKSFSKEQQTMDNLECQLICPICL	1.82
YKSFSKEQQTMDNLEFQLICPICL	2.14
YKSFSKEQQTMDNLEEQLICPICL	1.68
YKSFSKEQQTMDNLEAQLICPICL	1.8
YKSFSKEQQTMDNLEHQLICPICL	2.89
YKSFSKEQQTMDNLEDQLICPICL	2.33
YKSFSKEQQTMDNLEGQLICPICL	2.08
YKSFSKEQITMDNLEKQLICPICL	1.79
YKSFSKEQDTMDNLEKQLICPICL	2.8
YKSFSKEQATMDNLEKQLICPICL	2.25
YKSFSKEQMTMDNLEKQLICPICL	2.17
YKSFSKEQVTMDNLEKQLICPICL	1.76
YKSFSKEQETMDNLEKQLICPICL	2.08
YKSFSKEQCTMDNLEKQLICPICL	2.15
YKSFSKEQRTMDNLEKQLICPICL	2.5
YKSFSKEQPTMDNLEKQLICPICL	2.16
YKSFSKEQHTMDNLEKQLICPICL	1.98

Variant	protein stability index
YKSFSKEQWTMDNLEKQLICPICL	1.67
YKSFSKEQYTMDNLEKQLICPICL	2.7
YKSFSKEQGTMDNLEKQLICPICL	2.39
YKSFSKEQSTMDNLEKQLICPICL	1.75
YKSFSKEQNTMDNLEKQLICPICL	2.22
YKSFSKEQLTMDNLEKQLICPICL	1.87
YKSFSKEQTTMDNLEKQLICPICL	1.57
YKSFSKEQFTMDNLEKQLICPICL	1.79
YKSFSKEQKTMDNLEKQLICPICL	2.15
YKSFSWEQQTMDNLEKQLICPICL	2.51
YKSFSMEQQTMDNLEKQLICPICL	1.57
YKSFSTEQQTMDNLEKQLICPICL	2.09
YKSFSSEQQTMDNLEKQLICPICL	2.14
YKSFSPEQQTMDNLEKQLICPICL	2.05
YKSFSYEQQTMDNLEKQLICPICL	1.98
YKSFSVEQQTMDNLEKQLICPICL	1.49
YKSFSREQQTMDNLEKQLICPICL	2.63
YKSFSNEQQTMDNLEKQLICPICL	2.04
YKSFSLEQQTMDNLEKQLICPICL	2.91
YKSFSIEQQTMDNLEKQLICPICL	1.85
YKSFSQEQQTMDNLEKQLICPICL	2.29
YKSFSKEIQTMDNLEKQLICPICL	2.1
YKSFSKEKQTMDNLEKQLICPICL	1.8
YKSFSKENQTMDNLEKQLICPICL	2.18

Variant	protein stability index
YKSFSKETQTMDNLEKQLICPICL	2.17
YKSFSKEHQTMDNLEKQLICPICL	2.37
YKSFSKEGQTMDNLEKQLICPICL	2.83
YKSFSKEMQTMDNLEKQLICPICL	1.96
YKSFSKEWQTMDNLEKQLICPICL	1.66
YKSFSKESQTMDNLEKQLICPICL	2.29
YKSFSKEAQTMDNLEKQLICPICL	2.65
YKSFSKECQTMDNLEKQLICPICL	1.96
YKSFSKEFQTMDNLEKQLICPICL	1.54
YKSFSKEEQTMDNLEKQLICPICL	2.3
YKSFSKERQTMDNLEKQLICPICL	1.72
YKSFSKEDQTMDNLEKQLICPICL	2.07
YKSFSKEVQTMDNLEKQLICPICL	2.09
YKSFSKEYQTMDNLEKQLICPICL	2
YKSFSKEPQTMDNLEKQLICPICL	2
YKSFSKELQTMDNLEKQLICPICL	1.75
YKSFSKEQQTMTNLEKQLICPICL	2.42
YKSFSKEQQTMVNLEKQLICPICL	1.89
YKSFSKEQQTMFNLEKQLICPICL	2.68
YKSFSKEQQTMINLEKQLICPICL	1.93
YKSFSKEQQTMANLEKQLICPICL	2.04
YKSFSKEQQTMHNLEKQLICPICL	1.93
YKSFSKEQQTMNNLEKQLICPICL	2.37
YKSFSKEQQTMMNLEKQLICPICL	2.26

Variant	protein stability index
YKSFSKEQQTMSNLEKQLICPICL	1.93
YKSFSKEQQTMPNLEKQLICPICL	2.43
YKSFSKEQQTMGNLEKQLICPICL	2.56
YKSFSKEQQTMCNLEKQLICPICL	2.17
YKSFSKEQQTMENLEKQLICPICL	2.59
YKSFSKEQQTMWNLEKQLICPICL	2.11
YKSFSKEQQTMRNLEKQLICPICL	1.93
YKSFSKEQQTMYNLEKQLICPICL	2.57
YKSFSKEQQTMKNLEKQLICPICL	2.98
YKSFSKEQQTMQNLEKQLICPICL	2.1
YKSFSKEQQTMLNLEKQLICPICL	2.14
YKSFSKEQQTEDNLEKQLICPICL	2.69
YKSFSKEQQTGDNLEKQLICPICL	2.22
YKSFSKEQQTPDNLEKQLICPICL	2.66
YKSFSKEQQTQDNLEKQLICPICL	2.69
YKSFSKEQQTRDNLEKQLICPICL	2.77
YKSFSKEQQTSDNLEKQLICPICL	2.29
YKSFSKEQQTADNLEKQLICPICL	2.74
YKSFSKEQQTTDNLEKQLICPICL	2.12
YKSFSKEQQTLDNLEKQLICPICL	2.3
YKSFSKEQQTIDNLEKQLICPICL	1.83
YKSFSKEQQTKDNLEKQLICPICL	2.54
YKSFSKEQQTFDNLEKQLICPICL	2.24
YKSFSKEQQTYDNLEKQLICPICL	2.1

Variant	protein stability index
YKSFSKEQQTHDNLEKQLICPICL	1.82
YKSFSKEQQTWDNLEKQLICPICL	1.55
YKSFSKEQQTVDNLEKQLICPICL	2.68
YKSFSKEQQTDDNLEKQLICPICL	2.68
YKSFSKEQQTNDNLEKQLICPICL	3.68
YKSFSKEQQTCDNLEKQLICPICL	2.47
YKSFSKSQQTMDNLEKQLICPICL	1.67
YKSFSKMQQTMDNLEKQLICPICL	2.37
YKSFSKQQQTMDNLEKQLICPICL	1.67
YKSFSKHQQTMDNLEKQLICPICL	2.36
YKSFSKFQQTMDNLEKQLICPICL	1.87
YKSFSKIQQTMDNLEKQLICPICL	2.4
YKSFSKVQQTMDNLEKQLICPICL	1.6
YKSFSKDQQTMDNLEKQLICPICL	2.29
YKSFSKCQQTMDNLEKQLICPICL	1.98
YKSFSKNQQTMDNLEKQLICPICL	2.18
YKSFSKKQQTMDNLEKQLICPICL	2.25
YKSFSKWQQTMDNLEKQLICPICL	1.83
YKSFSKTQQTMDNLEKQLICPICL	1.96
YKSFSKGQQTMDNLEKQLICPICL	1.53
YKSFSKAQQTMDNLEKQLICPICL	2.08
YKSFSKRQQTMDNLEKQLICPICL	1.87
YKSFSKYQQTMDNLEKQLICPICL	1.72
YKSFSKLQQTMDNLEKQLICPICL	1.35

Variant	protein stability index
YKSFSKPQQTMDNLEKQLICPICL	2.27
YKSFSKEQQTMDNAEKQLICPICL	3.03
YKSFSKEQQTMDNGEKQLICPICL	2.6
YKSFSKEQQTMDNWEKQLICPICL	2.81
YKSFSKEQQTMDNTEKQLICPICL	3.03
YKSFSKEQQTMDNPEKQLICPICL	2.7
YKSFSKEQQTMDNFEKQLICPICL	1.88
YKSFSKEQQTMDNHEKQLICPICL	2.13
YKSFSKEQQTMDNQEKQLICPICL	3.27
YKSFSKEQQTMDNREKQLICPICL	2.58
YKSFSKEQQTMDNKEKQLICPICL	2.58
YKSFSKEQQTMDNDEKQLICPICL	2.53
YKSFSKEQQTMDNIEKQLICPICL	2.06
YKSFSKEQQTMDNCEKQLICPICL	2.51
YKSFSKEQQTMDNMEKQLICPICL	2.53
YKSFSKEQQTMDNNEKQLICPICL	2.73
YKSFSKEQQTMDNEEKQLICPICL	3.2
YKSFSKEQQTMDNYEKQLICPICL	1.98
YKSFSKEQQTMDNSEKQLICPICL	2.8
YKSFSKEQQTMDNVEKQLICPICL	2.23
